Experimental findings from patent US20240279278A1, “NMU RECEPTOR 2 AGONISTS” (Boehringer Ingelheim International GmbH, priority 2023, published 2024) are described below.

In the assay the target is T1, human neuromedin U receptor 1 (human, UniProt Q9HB89 24-426).
T1 sequence (looked up): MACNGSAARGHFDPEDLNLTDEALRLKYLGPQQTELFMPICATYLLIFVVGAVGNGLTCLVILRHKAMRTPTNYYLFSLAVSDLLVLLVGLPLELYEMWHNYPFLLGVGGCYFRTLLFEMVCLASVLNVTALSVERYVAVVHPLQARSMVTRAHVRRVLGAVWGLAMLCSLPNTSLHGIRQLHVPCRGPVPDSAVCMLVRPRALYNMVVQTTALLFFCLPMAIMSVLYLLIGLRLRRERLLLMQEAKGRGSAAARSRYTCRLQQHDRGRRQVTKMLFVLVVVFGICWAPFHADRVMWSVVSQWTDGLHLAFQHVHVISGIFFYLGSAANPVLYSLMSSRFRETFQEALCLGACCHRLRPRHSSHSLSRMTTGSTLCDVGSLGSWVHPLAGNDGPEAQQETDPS
The experiment in a line: cell-based or functional assay.

B1: C20DA-gGlu4-Sar12-AEPipAc-Tyr-Phe-NMeLeu-Nle-Dbu-Pro-Arg-Gly-NH2 (peptide)
peptide: EEEEXXXXXXXXXXXXXYFLXXPRG
HELM: PEPTIDE1{[O=C(O)CCCCCCCCCCCCCCCCCCC(=O)[*:2]].[gGlu].[gGlu].[gGlu].[gGlu].[Sar].[Sar].[Sar].[Sar].[Sar].[Sar].[Sar].[Sar].[Sar].[Sar].[Sar].[Sar].[O=C(CN1CCN(CCN[*:1])CC1)[*:2]].Y.F.[meL].[Nle].[Dab].P.R.G.[am]}$$$$V2.0
SMILES: CCCC[C@H](NC(=O)[C@H](CC(C)C)N(C)C(=O)[C@H](Cc1ccccc1)NC(=O)[C@H](Cc1ccc(O)cc1)NC(=O)CN1CCN(CCNC(=O)CN(C)C(=O)CN(C)C(=O)CN(C)C(=O)CN(C)C(=O)CN(C)C(=O)CN(C)C(=O)CN(C)C(=O)CN(C)C(=O)CN(C)C(=O)CN(C)C(=O)CN(C)C(=O)CN(C)C(=O)CC[C@H](NC(=O)CC[C@H](NC(=O)CC[C@H](NC(=O)CC[C@H](NC(=O)CCCCCCCCCCCCCCCCCCC(=O)O)C(=O)O)C(=O)O)C(=O)O)C(=O)O)CC1)C(=O)N[C@@H](CCN)C(=O)N1CCC[C@H]1C(=O)N[C@@H](CCCNC(=N)N)C(=O)NCC(N)=O
With B1, the “EC50 (hNMUR1) buffer” value stood at 860 nM.

B2: C18DA-gGlu4-Sar12-AEPipAc-Tyr-Phe-NMeLeu-Nle-Arg-Pro-Arg-Gly-NH2 (peptide)
peptide: EEEEXXXXXXXXXXXXXYFLXRPRG
HELM: PEPTIDE1{[O=C(O)CCCCCCCCCCCCCCCCC(=O)[*:2]].[gGlu].[gGlu].[gGlu].[gGlu].[Sar].[Sar].[Sar].[Sar].[Sar].[Sar].[Sar].[Sar].[Sar].[Sar].[Sar].[Sar].[O=C(CN1CCN(CCN[*:1])CC1)[*:2]].Y.F.[meL].[Nle].R.P.R.G.[am]}$$$$V2.0
SMILES: CCCC[C@H](NC(=O)[C@H](CC(C)C)N(C)C(=O)[C@H](Cc1ccccc1)NC(=O)[C@H](Cc1ccc(O)cc1)NC(=O)CN1CCN(CCNC(=O)CN(C)C(=O)CN(C)C(=O)CN(C)C(=O)CN(C)C(=O)CN(C)C(=O)CN(C)C(=O)CN(C)C(=O)CN(C)C(=O)CN(C)C(=O)CN(C)C(=O)CN(C)C(=O)CN(C)C(=O)CC[C@H](NC(=O)CC[C@H](NC(=O)CC[C@H](NC(=O)CC[C@H](NC(=O)CCCCCCCCCCCCCCCCC(=O)O)C(=O)O)C(=O)O)C(=O)O)C(=O)O)CC1)C(=O)N[C@@H](CCCNC(=N)N)C(=O)N1CCC[C@H]1C(=O)N[C@@H](CCCNC(=N)N)C(=O)NCC(N)=O
Regarding B2, the “EC50 (hNMUR1) buffer” value came out at 220 nM.

B3: C20DA-gGlu4-Sar15-AEPipAc-Tyr-Phe-NMeLeu-Nle-Lys-Pro-Arg-Gly-NH2 (peptide)
peptide: EEEEXXXXXXXXXXXXXXXXYFLXKPRG
HELM: PEPTIDE1{[O=C(O)CCCCCCCCCCCCCCCCCCC(=O)[*:2]].[gGlu].[gGlu].[gGlu].[gGlu].[Sar].[Sar].[Sar].[Sar].[Sar].[Sar].[Sar].[Sar].[Sar].[Sar].[Sar].[Sar].[Sar].[Sar].[Sar].[O=C(CN1CCN(CCN[*:1])CC1)[*:2]].Y.F.[meL].[Nle].K.P.R.G.[am]}$$$$V2.0
SMILES: CCCC[C@H](NC(=O)[C@H](CC(C)C)N(C)C(=O)[C@H](Cc1ccccc1)NC(=O)[C@H](Cc1ccc(O)cc1)NC(=O)CN1CCN(CCNC(=O)CN(C)C(=O)CN(C)C(=O)CN(C)C(=O)CN(C)C(=O)CN(C)C(=O)CN(C)C(=O)CN(C)C(=O)CN(C)C(=O)CN(C)C(=O)CN(C)C(=O)CN(C)C(=O)CN(C)C(=O)CN(C)C(=O)CN(C)C(=O)CN(C)C(=O)CC[C@H](NC(=O)CC[C@H](NC(=O)CC[C@H](NC(=O)CC[C@H](NC(=O)CCCCCCCCCCCCCCCCCCC(=O)O)C(=O)O)C(=O)O)C(=O)O)C(=O)O)CC1)C(=O)N[C@@H](CCCCN)C(=O)N1CCC[C@H]1C(=O)N[C@@H](CCCNC(=N)N)C(=O)NCC(N)=O
Consider B3, for which the “EC50 (hNMUR1) buffer” value amounted to 610 nM.

B4: C20DA-gGlu4-Sar15-AEPipAc-Tyr-Phe-NMeLeu-Nle-Lys-NMeAla-Arg-Gly-NH2 (peptide)
peptide: EEEEXXXXXXXXXXXXXXXXYFLXKARG
HELM: PEPTIDE1{[O=C(O)CCCCCCCCCCCCCCCCCCC(=O)[*:2]].[gGlu].[gGlu].[gGlu].[gGlu].[Sar].[Sar].[Sar].[Sar].[Sar].[Sar].[Sar].[Sar].[Sar].[Sar].[Sar].[Sar].[Sar].[Sar].[Sar].[O=C(CN1CCN(CCN[*:1])CC1)[*:2]].Y.F.[meL].[Nle].K.[meA].R.G.[am]}$$$$V2.0
SMILES: CCCC[C@H](NC(=O)[C@H](CC(C)C)N(C)C(=O)[C@H](Cc1ccccc1)NC(=O)[C@H](Cc1ccc(O)cc1)NC(=O)CN1CCN(CCNC(=O)CN(C)C(=O)CN(C)C(=O)CN(C)C(=O)CN(C)C(=O)CN(C)C(=O)CN(C)C(=O)CN(C)C(=O)CN(C)C(=O)CN(C)C(=O)CN(C)C(=O)CN(C)C(=O)CN(C)C(=O)CN(C)C(=O)CN(C)C(=O)CN(C)C(=O)CC[C@H](NC(=O)CC[C@H](NC(=O)CC[C@H](NC(=O)CC[C@H](NC(=O)CCCCCCCCCCCCCCCCCCC(=O)O)C(=O)O)C(=O)O)C(=O)O)C(=O)O)CC1)C(=O)N[C@@H](CCCCN)C(=O)N(C)[C@@H](C)C(=O)N[C@@H](CCCNC(=N)N)C(=O)NCC(N)=O
Consider B4, for which the “EC50 (hNMUR1) buffer” value is > 1000 nM.

B5: C20DA-gGlu4-Sar15-AEPipAc-Tyr-Phe-NMeLeu-Nle-Dbu-NMeAla-Arg-Gly-NH2 (peptide)
peptide: EEEEXXXXXXXXXXXXXXXXYFLXXARG
HELM: PEPTIDE1{[O=C(O)CCCCCCCCCCCCCCCCCCC(=O)[*:2]].[gGlu].[gGlu].[gGlu].[gGlu].[Sar].[Sar].[Sar].[Sar].[Sar].[Sar].[Sar].[Sar].[Sar].[Sar].[Sar].[Sar].[Sar].[Sar].[Sar].[O=C(CN1CCN(CCN[*:1])CC1)[*:2]].Y.F.[meL].[Nle].[Dab].[meA].R.G.[am]}$$$$V2.0
SMILES: CCCC[C@H](NC(=O)[C@H](CC(C)C)N(C)C(=O)[C@H](Cc1ccccc1)NC(=O)[C@H](Cc1ccc(O)cc1)NC(=O)CN1CCN(CCNC(=O)CN(C)C(=O)CN(C)C(=O)CN(C)C(=O)CN(C)C(=O)CN(C)C(=O)CN(C)C(=O)CN(C)C(=O)CN(C)C(=O)CN(C)C(=O)CN(C)C(=O)CN(C)C(=O)CN(C)C(=O)CN(C)C(=O)CN(C)C(=O)CN(C)C(=O)CC[C@H](NC(=O)CC[C@H](NC(=O)CC[C@H](NC(=O)CC[C@H](NC(=O)CCCCCCCCCCCCCCCCCCC(=O)O)C(=O)O)C(=O)O)C(=O)O)C(=O)O)CC1)C(=O)N[C@@H](CCN)C(=O)N(C)[C@@H](C)C(=O)N[C@@H](CCCNC(=N)N)C(=O)NCC(N)=O
Turning to B5, the “EC50 (hNMUR1) buffer” value was > 1000 nM.

B6: C20DA-gGlu4-Sar15-AEPipAc-Tyr-Phe-NMeLeu-Nle-Orn-NMeAla-Arg-Gly-NH2 (peptide)
peptide: EEEEXXXXXXXXXXXXXXXXYFLXXARG
HELM: PEPTIDE1{[O=C(O)CCCCCCCCCCCCCCCCCCC(=O)[*:2]].[gGlu].[gGlu].[gGlu].[gGlu].[Sar].[Sar].[Sar].[Sar].[Sar].[Sar].[Sar].[Sar].[Sar].[Sar].[Sar].[Sar].[Sar].[Sar].[Sar].[O=C(CN1CCN(CCN[*:1])CC1)[*:2]].Y.F.[meL].[Nle].[Orn].[meA].R.G.[am]}$$$$V2.0
SMILES: CCCC[C@H](NC(=O)[C@H](CC(C)C)N(C)C(=O)[C@H](Cc1ccccc1)NC(=O)[C@H](Cc1ccc(O)cc1)NC(=O)CN1CCN(CCNC(=O)CN(C)C(=O)CN(C)C(=O)CN(C)C(=O)CN(C)C(=O)CN(C)C(=O)CN(C)C(=O)CN(C)C(=O)CN(C)C(=O)CN(C)C(=O)CN(C)C(=O)CN(C)C(=O)CN(C)C(=O)CN(C)C(=O)CN(C)C(=O)CN(C)C(=O)CC[C@H](NC(=O)CC[C@H](NC(=O)CC[C@H](NC(=O)CC[C@H](NC(=O)CCCCCCCCCCCCCCCCCCC(=O)O)C(=O)O)C(=O)O)C(=O)O)C(=O)O)CC1)C(=O)N[C@@H](CCCN)C(=O)N(C)[C@@H](C)C(=O)N[C@@H](CCCNC(=N)N)C(=O)NCC(N)=O
For the molecule B6, the “EC50 (hNMUR1) buffer” value was determined as 1400 nM.
